Experimental data reported in patent US20250042994A1 (HAINAN SIMCERE ZAIMING PHARMACEUTICAL, published 2025).
Numbering of substitutions follows the chain as printed.

T1: Human CD19-his protein (human, UniProt P15391 20-291)
T1 construct: bought protein; also called human CD19 protein; recombinant human CD19-His; not shown: His tag
T1 sequence (looked up): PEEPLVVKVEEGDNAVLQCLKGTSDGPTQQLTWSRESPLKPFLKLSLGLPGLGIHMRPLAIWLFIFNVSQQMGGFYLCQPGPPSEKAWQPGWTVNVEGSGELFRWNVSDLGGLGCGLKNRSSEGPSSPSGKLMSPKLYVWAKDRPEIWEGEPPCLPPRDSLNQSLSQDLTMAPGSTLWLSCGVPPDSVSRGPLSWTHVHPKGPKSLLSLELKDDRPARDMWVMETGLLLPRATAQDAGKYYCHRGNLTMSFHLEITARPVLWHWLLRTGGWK

T2: human CD19 exon1-3-His tag protein (human, UniProt P15391 20-186, limits assumed)
T2 construct: membrane-distal part of the extracellular region, made in HEK293E cells; not shown: His tag
T2 sequence (looked up): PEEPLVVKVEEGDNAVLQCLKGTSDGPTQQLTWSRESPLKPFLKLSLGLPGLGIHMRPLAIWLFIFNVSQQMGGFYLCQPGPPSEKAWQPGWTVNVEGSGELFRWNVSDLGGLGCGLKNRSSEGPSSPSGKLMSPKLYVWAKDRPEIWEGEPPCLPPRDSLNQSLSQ

T3: Human CD19-his protein (human, UniProt P15391 20-291)
T3 construct: bought protein; also called recombinant human CD19-His; CD19 full-length protein; not shown: His tag
T3 sequence (looked up): T1 sequence (looked up)

T4: murine CD19 protein (murine, UniProt P25918 17-287, limits assumed)
T4 construct: bought protein; also called commercial murine CD19
T4 sequence (looked up): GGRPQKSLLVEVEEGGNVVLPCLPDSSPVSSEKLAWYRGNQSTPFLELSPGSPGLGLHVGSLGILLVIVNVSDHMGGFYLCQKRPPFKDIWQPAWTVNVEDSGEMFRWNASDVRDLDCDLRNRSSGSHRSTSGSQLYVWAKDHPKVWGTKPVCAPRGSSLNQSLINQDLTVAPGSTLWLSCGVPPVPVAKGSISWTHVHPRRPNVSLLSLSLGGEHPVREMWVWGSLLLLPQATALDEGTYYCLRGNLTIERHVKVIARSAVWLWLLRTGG

T5: human CD19 exon1-3-his protein (human, UniProt P15391 20-186, limits assumed)
T5 construct: made in HEK293E cells; also called membrane-distal end; not shown: His tag
T5 sequence (looked up): T2 sequence (looked up)

B1: F3.83.9 (antibody, human IgG1, V domains shown)
VH: DVQLQESGPGLVKPSQSLSLTCSVTGYSITSGYYWNWIRQFPGNKLEWMGYISYDGGNNYNPSLKNRISITRDTSKNQFFLKLNSVTTEDTATYFCAREDYSNWYFDVWGTGTTVTVSS
VL: DIVLTQSPASLAVSLGQRATISCRASQSVSKSSYSYMHWYQQKPGQSPKLLIKYASILKSGVPARFSGSGSGTDFTLNIHPVEEEDTATYYCQHSWEIPWTFGGGTKLEIK
notes: human-murine chimeric antibody, human IgG1
B2: F3.126.15 (antibody, human IgG1, V domains shown)
VH: QVQLQQPGAELVMPGASVKLSCKASGYTFTSYWMHWVKQRPGQGLEWIGEIDPSDSYTTYNQNFKGKATLTVDISTSTAYIQLSNLTSEDSAVYYCARLTGNYIHYWGQGTTLTVSS
VL: DIVMTQSHKFMSTSVGDRVSITCKASQDVSPAVAWYQQRPGQCPKLLIFSSSYRSTGVPDRFTGSGSGTDFTFTISSVQAEDLAVYYCQQHYSLPLTFGAGTKLELK
notes: as for B1
B3: F3.114.12 (antibody, human IgG1, V domains shown)
VH: DVQLQESGPGLVKPSQSLSLTCSVTGYSITSGYDWNWIRQFPGNKLEWMGYISYDGKNNYNPSLRNRISITRDTSKNQFFLKLNSVTTEDTATYYCARRDLRGYFDVWGTGTTVTVSS
VL: DIVLTQSPATLSVTPGDRVSLSCRASQSISNYLHWYQQKSHESPRLLIKYASLSISGIPSRFSGSGSGTDFTLSINSVETEDFGVYFCQQSNSWPLTFGAGTKLELK
notes: as for B1
B4: F5.10.6 (antibody, human IgG1, V domains shown)
VH: DVQLQESGPGLVKPSQSLSLTCSVTDYSITSGYYWTWIRQFPGNKLEWMGYISYDGSTNYNPSLKNRFSITRDTSKNQFFLKLNSVIIEDTATYYCARDRMSTTWYFDVWGTGTTVTVSS
VL: DIVLTQSPASLAVSLGQRATISCRASESVDNYGISFMHWYQQKPGQPPKLLIYRASKTESGIPARFSGSGSRTDFTLTINPVETDDVATYYCQQSNKYPRTFGGGTKVEIK
notes: human-murine chimeric antibody, human IgG1 constant
B5: F4.276.12 (antibody, human IgG1, V domains shown)
VH: EIQLQQSGPELVKPGASVKVSCKASGYAFSAYNMYWVKQSHGKSLEWIGYIDPYNGGTNYNQKFKGKATLTVDKSSSTAYMHLNSLTSEDSAVYYCARDGYEVTYWGQGTLVTVSA
VL: QIVLTQSPALMSASLGEEITLTCSASSSVTYMHWSQQKSGTSPRLLIYSTSNLASGVPSRFSGSGSGTFYSLTISSVEAEDAADYYCHQWSSYPWTFGGGTKLEIK
notes: as for B4
B6: F4.272.13 (antibody, human IgG1, V domains shown)
VH: QVQLKESGPGLVAPSQSLSITCTVSGFSLTDYGVSWIRQPPGKGLEWLGVIWGSETTFYNSALKSRLSISKDNSKSQLFLQMNSLQADDTAIYYCAKHHYYGGSFSMDYWGQGTSVTVSS
VL: DIQMTQTTSSLSASLGDRVTISCRASQDINNYLNWYQQKPDGTVKFLIYYTSRLHSGVPSRFSGSGSGTDYSLTISDLEQEDIATYFCQQGNTLPYTFGGGTKLEIK
notes: as for B4
B7: F3.74.4 (antibody, human IgG1, V domains shown)
VH: QVQLQQSGAELVRPGASVTLSCKASGYTFTDYEMHWVKQTPVHGLEWIGGIAPETGLTTYNQKFEDKAILTADKSSRTAYMELRSLTSEDSAVYFCNPNNYGLWGTGTTVTVSS
VL: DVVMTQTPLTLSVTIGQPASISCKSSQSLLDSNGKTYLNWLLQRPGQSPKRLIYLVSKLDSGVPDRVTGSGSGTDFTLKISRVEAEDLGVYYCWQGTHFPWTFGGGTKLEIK
notes: as for B4
B8: F3.114.12 (antibody, human IgG1, V domains shown)
VH: B3 VH
VL: B3 VL
notes: as for B4
B9: F3.148.10 (antibody, human IgG1, V domains shown)
VH: EVQLQQSGAELVRPGSSVTMSCKTSGYTFTNYGINWVKQRPGQGLEWIGYIFIGNDYTEYNEKFKGKATLTSDTSSSTAYMQLSSLTSEDSAIYFCTRFYSNYYGMDPWGQGTSVTVSS
VL: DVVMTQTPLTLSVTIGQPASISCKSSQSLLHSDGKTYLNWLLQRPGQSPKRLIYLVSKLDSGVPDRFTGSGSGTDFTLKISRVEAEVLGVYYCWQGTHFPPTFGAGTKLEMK
notes: as for B4
B10: F3.109.1 (antibody, human IgG1, V domains shown)
VH: B9 VH with T19K, N31S, F52Y, Y60F, T97A, Y103S, Y104D, G105P, P108Y, Q111H
VL: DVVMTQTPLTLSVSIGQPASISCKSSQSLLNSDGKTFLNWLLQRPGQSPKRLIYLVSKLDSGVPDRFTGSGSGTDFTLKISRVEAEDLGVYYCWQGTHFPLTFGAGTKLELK
notes: as for B4

target: T1, Human CD19-his protein; assay: ELISA, antibody at 0.0001 nM
Procedure: (§1) Human CD19-his protein (purchased from ACROBiosystems, catalog number: CD9-H52H2) was diluted with PBS to a final concentration of 4 μg/mL, and then added to a 96-well ELISA plate at 100 μl/well. The plate was sealed with a plastic film and incubated overnight at 4° C., the plate was washed 2 times with PBS the next day, and then a blocking solution [PBS+2% (w/w) BSA] was added for blocking at room temperature for 2 h. The blocking solution was poured off, and 100 nM gradiently diluted CD19 chimeric antibody or control antibody was added at 50 μl/well. After incubation at 37° C. for 2 h, the plate was washed 3 times with PBS. […] TMB substrate was added at 50 μl/well, and incubated at room temperature for 10 min, and then a stop solution (1.0 N HCl) was added at 50 μl/well. The OD450 nm values were read by an ELISA microplate reader (Multimode Plate Reader, EnSight, purchased from Perkin Elmer).

| Binder | OD450 |
| --- | --- |
| B1 | 0.05 |
| B2 | 0.05 |
| B3 | 0.05 |

target: T2, human CD19 exon1-3-His tag protein; assay: ELISA on coated human CD19 exon 1-3-His
Procedure: as §1
(§2) CD19 protein contains 4 exons in the extracellular region, in which exons 1-3 are located at the membrane-distal end and exon 4 is located at the membrane-proximal end. […] To identify the distribution of antigen binding epitopes of the chimeric antibodies, human CD19 exon 1-3-His (membrane-distal end) was used to coat at 2 μg/mL according to the ELISA method in example 5.1.

| Binder | binding result | EC50 (read off the curve) |
| --- | --- | --- |
| B4 | no binding (tested: 100 nM) | – |
| B5 | no binding (tested: 100 nM) | – |
| B6 | no binding (tested: 100 nM) | – |
| B7 | – | ~0.3 nM |
| B8 | no binding (tested: 100 nM) | – |
| B9 | – | ~0.2 nM |
| B10 | – | ~0.1 nM |

target: T1, Human CD19-his protein; assay: ELISA, antibody at 0.001 nM
Procedure: as §1

| Binder | OD450 |
| --- | --- |
| B1 | 0.05 |
| B2 | 0.05 |
| B3 | 0.05 |

target: T1, Human CD19-his protein; assay: ELISA, antibody at 0.01 nM
Procedure: as §1

| Binder | OD450 |
| --- | --- |
| B1 | 0.06 |
| B2 | 0.05 |
| B3 | 0.05 |

target: T3, Human CD19-his protein; assay: SPR Biacore, Ab captured on Protein A, CD19-His analyte
Procedure: A sample buffer and a running buffer were HBS-EP+ (10 mM HEPES, 150 mM NaCl, 3 mM EDTA and 0.05% surfactant P20) (GE Healthcare; BR-1006-69). The flow-through cell was set to 25° C. The sample block was set to 16° C. Both were pretreated with the running buffer. In each cycle, an antibody to be detected was first captured with a Protein A chip, and then a single concentration of CD19 antigen protein was injected. The binding and dissociation processes of the antibody and the antigen protein were recorded, and finally Glycine pH 1.5 (GE Healthcare; BR-1003-54) was used to complete chip regeneration. The binding was measured by injecting different concentrations of recombinant human CD19-His proteins in a solution for 240 s with a flow rate of 30 μl/min. The concentration started from 200 nM (see the detailed results for the actual concentration in the test) and was diluted at 1:1, making a total of 5 concentrations. The dissociation phase was monitored for up to 600 s and was triggered by switching from sample solution to running buffer. The surface was regenerated by washing with a 10 mM glycine solution (pH 1.5) for 30 s at a flow rate of 30 μl/min. Bulk refractive index difference was corrected by subtracting the response obtained from the goat anti-human Fc surface. Blank injection was also subtracted (=double reference). For calculation of apparent KD and other kinetic parameters, Langmuir 1:1 model was used.

| Binder | Kd | koff | kon |
| --- | --- | --- | --- |
| B4 | 1.84 nM | 0.000151 s⁻¹ | 82100 M⁻¹ s⁻¹ |
| B5 | 3.33 nM | 0.00081 s⁻¹ | 243000 M⁻¹ s⁻¹ |
| B6 | 0.294 nM | 6.51e-05 s⁻¹ | 221000 M⁻¹ s⁻¹ |
| B7 | 18.7 nM | 0.000879 s⁻¹ | 47100 M⁻¹ s⁻¹ |
| B8 | 6.03 nM | 0.000465 s⁻¹ | 77000 M⁻¹ s⁻¹ |
| B9 | 5.32 nM | 0.00119 s⁻¹ | 224000 M⁻¹ s⁻¹ |
| B10 | 5.67 nM | 0.00108 s⁻¹ | 190000 M⁻¹ s⁻¹ |

target: T1, Human CD19-his protein; assay: ELISA, antibody at 1.00 nM
Procedure: as §1

| Binder | OD450 |
| --- | --- |
| B1 | 0.36 |
| B2 | 0.2 |
| B3 | 0.24 |

target: T4, murine CD19 protein; assay: ELISA, coated murine CD19
Procedure: as §1
In order to detect the species cross-binding activity of the chimeric antibodies, an ELISA plate was coated with commercial murine CD19 (ACROBiosystems, catalog number: 50510-M08H) and monkey CD19 (ACROBiosystems, catalog number: 90051-C08H), respectively, and the ELISA detection was performed according to the method in example 5.1.

| Binder | binding result |
| --- | --- |
| B1 | no binding |
| B2 | no binding |
| B3 | no binding |

target: T1, Human CD19-his protein; assay: ELISA, antibody at 100 nM
Procedure: as §1

| Binder | OD450 |
| --- | --- |
| B1 | 0.94 |
| B2 | 0.7 |
| B3 | 0.61 |

target: T5, human CD19 exon1-3-his protein; assay: ELISA, coated at 2 ug/mL
Procedure: as §1, §2

| Binder | binding result |
| --- | --- |
| B1 | no binding |
| B2 | no binding |
| B3 | no binding |

target: T1, Human CD19-his protein; assay: ELISA, antibody at 0.10 nM
Procedure: as §1

| Binder | OD450 |
| --- | --- |
| B1 | 0.11 |
| B2 | 0.07 |
| B3 | 0.08 |

target: T1, Human CD19-his protein; assay: ELISA, antibody at 10 nM
Procedure: as §1

| Binder | OD450 |
| --- | --- |
| B1 | 0.6 |
| B2 | 0.46 |
| B3 | 0.46 |
